From US20110286958A1, “HPMA POLYMER PLATINUM CHELATES” (Access Pharmaceuticals, Inc., priority 2010, published 2011)
Ends that are not written are not given here. Ama = amidomalonate chelating group bound to Pt

Assays:
[1] = 27° C.; cited from earlier work
[2] = Release of small molecule Pt species from polymer-linker-Pt complexes at 37° C. in PBS; type: physicochemical; conditions: for Percent small platinum released from 1R,2R-DACH Pt(II) complex at 37° C. in PBS, 3 hours / Percent small platinum released from 1R,2R-DACH Pt(II) complex at 37° C. in PBS, 24 hours: 1R,2R-DACH stable chelate; for Percent small platinum released from cis-diammine Pt(II) complex at 37° C. in PBS, 3 hours / Percent small platinum released from cis-diammine Pt(II) complex at 37° C. in PBS, 24 hours: cis-diammine stable ligands
Source text: The compound tested comprised a poly(N-(2-hydroxypropyl)methacrylamide (10%)-co-methacrylamide (90%)) backbone polymer and either cis-diammine or 1R,2R-diaminocyclohexane (DACH) as the stable ligands/chelate of the Pt complex. The leaving-ligand comprised an N,O bidentate ligand with amidoaspartate (Asp) or amidomalonate (Ama).

[3] = Relative toxicity of Compound 1 made by two different processes, body weight in mice; type: in vivo, Female C57BL/6 mice; conditions: murine study; new process versus process of U.S. Pat. No. 7,166,733
Description: Biological evaluation can be carried out with the methods as described below.
Female C57BL/6 mice were randomized into 7 groups of 5 mice each. Each mouse was identified by ear notch and followed individually throughout the study. Animals were observed and weighed prior to dosing for establishment of dosing volumes. All mice were dosed by a single IP injection with either a) Compound 1 made by the processes described herein, b) Compound 1 made by the process described in U.S. Pat. No. 7,166,733, or c) vehicle control. Three doses of each compound were tested: 75 mg Pt/kg, 100 mg Pt/kg and 150 mg Pt/kg. Test compounds were dissolved in isotonic glucose and administered in a volume of 0.4 mL per 20 g body weight. Gross observations and body weights were recorded daily for 14 days. Percent body weight change for each animal on each day was calculated as the percent change from their body weight recorded on day 1 just prior to injection of compounds.

With `NC1CCCCC1N.O.O.O=[N+]([O-])[O-].O=[N+]([O-])[O-].[Pt+2]` (stereo not drawn) [diaqua platinum species, 1R,2R-DACH-diaquaplatinum (II) dinitrate] as the molecule, how does the pKa1 [1] read?
The pKa1 was 5.4.

What about the pKa2 [1] of the same molecule?
Its pKa2 is 7.2.

For “Gly-Phe-Leu-Gly-Ama=Pt= (GFLG-Ama; also: Pt complex via Ama (=Pt=))”, which “Percent small platinum released from 1R,2R-DACH Pt(II) complex at 37° C. in PBS, 3 hours” value [2] is on record?
The value was 0.7%.

What about the “Percent small platinum released from 1R,2R-DACH Pt(II) complex at 37° C. in PBS, 24 hours” value [2] of the same molecule?
The value was 2.4%.

What about the “Percent small platinum released from cis-diammine Pt(II) complex at 37° C. in PBS, 3 hours” value [2] of the same molecule?
Its value is 0.7%.

What about the “Percent small platinum released from cis-diammine Pt(II) complex at 37° C. in PBS, 24 hours” value [2] of the same molecule?
The value was 2.1%.

What does the source list for “Gly-Phe-Leu-Gly-Asp=Pt= (GFLGD; also: Pt conjugation (Asp=Pt=))”?
Percent small platinum released from 1R,2R-DACH Pt(II) complex at 37° C. in PBS, 3 hours [2]: 2.0%; Percent small platinum released from 1R,2R-DACH Pt(II) complex at 37° C. in PBS, 24 hours [2]: 6.5%; Percent small platinum released from cis-diammine Pt(II) complex at 37° C. in PBS, 3 hours [2]: 1.5%; Percent small platinum released from cis-diammine Pt(II) complex at 37° C. in PBS, 24 hours [2]: 4.7%

Which safety profile [3] does the source give for poly(HPMA)-GGG-Ama=PtDACH [Compound 1] here?
Its safety profile is “safety profile identical to that of Compound 1 made by the processes described previously”.
